According to publication PMC5709467, “Solution structure and interaction with copper in vitro and in living cells of the first BIR domain of XIAP” (Scientific Reports, 2017):

Assays:
[1] = molecular target: D71N/R72E mutant of BIR1 (1-105) of XIAP (human) (UniProt P98170); test: MALDI-TOF mass spectrometry; oxidised D71N/R72E BIR1; covalent (disulfide-linked) dimer; compared with a sample treated with DTT
[2] = molecular target: D71N/R72E mutant of BIR1 (1-105) of XIAP (human) (UniProt P98170); test: SEC; oxidised protein (C12 disulfide), analytical gel filtration on Superdex 75 10/200 GL, 20 mM Bis-Tris pH 6.5
[3] = molecular target: the molecule itself; test: NMR 15N relaxation (R2/R1, rotational correlation time); reduced protein, about 0.3 mM, 20 mM Bis-Tris pH 6.5, 298 K

stoichiometry N [1]	stoichiometry N [2]	Molecule	stoichiometry N [3]
2	2	D71N/R72E mutant of BIR1 (1-105) of XIAP (from UniProt P98170 1-105) (domain or fragment)	–
–	–	Wild-type BIR1 (1-105 aa), first BIR domain of XIAP (domain or fragment, human, UniProt P98170 1-105, looked up, 15N- or 15N,13C-labelled for NMR; cloned into pET-3a; In the oxidised state C12 of the two subunits form a disulfide bond; also called WT BIR1) MTFNSFEGSKTCVPADINKEEEFVEEFNRLKTFANFPSGSPVSASTLARAGFLYTGEGDTVRCFSCHAAVDRWQYGDSAVGRHRKVSPNCRFINGFYLENSATQS	2
